For one substance, fold higher protein concentration needed to displace the labeled CC49 IgG (against unlabeled CC49 IgG and bivalent CC49/212) results are on record in patent US20060063715A1.

The assay addresses TAG-72 antigen (tumor-associated glycoprotein 72) (human). The assay can be described thus: competition RIA against 125I-labeled CC49 IgG (competitor), TAG-72 in a human breast carcinoma extract.

With “CC49/212 single-chain antigen-binding protein (monomer) (scFv)”, the fold higher protein concentration needed to displace the labeled CC49 IgG (against unlabeled CC49 IgG and bivalent CC49/212) was determined as 10 fold.
